This note sets out measurements from paper PMC9391379, “Ferritin-mediated iron detoxification promotes hypothermia survival in Caenorhabditis elegans and murine neurons” (Nature Communications, 2022).

B1: C. elegans ferritin FTN-2, recombinant, untagged, wild type (natural protein, UniProt Q9TYS3 1-170, looked up)
chain: MSLARQNYHSEVEAAVNKQINIELYASYVYLSMSFYFDRDDVALPNIAKFFKEQSDEEREHATELMRVQNLRGGRVVLQDIQKPENDEWGTALKAFEAALALEKFNNESLLKLHSTAGNHNDAHLTDFIEEKYLDEQVKSINEFARMVANLKRVGPGVGEYVFDKEHFSD
notes: FTN-2, C. elegans ferritin; ORF amplified from C. elegans cDNA and cloned between NcoI and NotI of pET28a; expressed without a tag; also called FTN-2 wt; source: E. coli BL21-CodonPlus (DE3)-RIPL, purified (heat step, acid precipitation, cation exchange)
B2: C. elegans ferritin FTN-2 E58K/H61G (FeOx-mut), recombinant, untagged (natural protein, UniProt Q9TYS3 1-170, looked up)
chain: B1 chain with E58K, H61G
notes: FTN-2, C. elegans ferritin; ORF in pET28a with the E58K/H61G double mutation made by site-directed mutagenesis; expressed without a tag; also called FTN-2 FeOx-mut; E58K/H61G-mutated FTN-2; source: E. coli BL21-CodonPlus (DE3)-RIPL, purified (heat step, acid precipitation, cation exchange)
B3: C. elegans ferritin FTN-1, recombinant, untagged, wild type (natural protein, UniProt O16453 1-170, looked up)
chain: MSLARQNYHDEVEAAVNKQINVELYASYVYLSMSAHFDRDDIALRNIAKFFKEQSDEERGHATELMRIQAVRGGRVAMQNIQKPEKDEWGTVLEAFEAALALERANNASLLKLHGIAEQRNDAHLTNYIQEKYLEEQVHSINEFARYIANIKRAGPGLGEYLFDKEEFSD
notes: FTN-1, C. elegans ferritin; ORF amplified from C. elegans cDNA and cloned between NcoI and NotI of pET28a; expressed without a tag; also called FTN-1 wt; source: E. coli BL21-CodonPlus (DE3)-RIPL, purified (heat step, acid precipitation, cation exchange)
B4: C. elegans ferritin FTN-1 E58K/H61G (FeOx-mut), recombinant, untagged (natural protein, UniProt O16453 1-170, looked up)
chain: B3 chain with E58K, H61G
notes: FTN-1, C. elegans ferritin; ORF in pET28a with the E58K/H61G double mutation made by site-directed mutagenesis; expressed without a tag; also called FTN-1 FeOx-mut; E58K/H61G-mutated FTN-1; source: E. coli BL21-CodonPlus (DE3)-RIPL, purified (heat step, acid precipitation, cation exchange)

Changes are numbered by the printed parent chain. Names may count otherwise.

This data set concerns the molecule itself. Kind of data set: native gel or EMSA; recombinant FTN variants (2 µg) resolved on a 4–16% gradient NativePAGE Bis-Tris gel, Coomassie Blue stained; NativeMark standard for the size of complexes; self-assembly into high molecular weight complexes. (A gel shift assay detects complexes by their altered migration in electrophoresis.)
On to B1, for which the binding result is “binds”.
Turning to B2, the binding result is reported as “binds”.
The entry for B3 is “binds”.
The entry for B4 is “binds”.
